The text below walks through data of US20070174009A1, “Methods and systems for analyzing a network of biological functions” (National Institute Of Advanced Industrial Science And …, priority 2004, published 2007).

Test [1] deals with human neuroblastoma SHSY5Y. The experiment in a line: Marker enzyme expression (ChAT, TH) in the presence of each ligand of the receptor tyrosine kinase. Format: cell-based. The settings on record: SHSY5Y cells, ChAT vs TH, beta-actin control, FIG. 19. The text has this: Cholinergic neuron-like cells were identified by using anti-choline acetyltransferase antibody, and dopaminergic neuron-like cells were identified by using anti-tyrosine hydroxylase antibody, both of which are available from Clontech.
Next, the marker enzyme expression in the presence of each ligand of the receptor tyrosine kinase has been studied.

The test system of test [2] is human neuroblastoma SHSY5Y. Kind of test: Differentiation (neuritegenesis) of SH-SY5Y cells by RA or NGF. Format: cell-based. The conditions noted are these: SH-SY5Y culture with RA or NGF added, FIG. 13. As for the experimental part: Human neuroblastoma (SHSY5Y) cells were maintained in Eagle's minimum essential medium (EMEM) supplemented with 10% (v/v) foetal bovine serum (FBS), 2% (v/v) glutamine and 1% (v/v) penicillin/streptomycin (10% medium), hereafter referred to as growth medium. Cells were incubated at 37° C. in a humidified atmosphere of 5% carbon dioxide.
Differentiation has been performed according to Yamada Y. et al., Neurosci Lett. 2004 Jun. 24; 364(1):11-15. Briefly, 100 ng/ml of NGF or […] of retinoic acid was added to the culture medium differentiate the SHSY5Y cells. Usually, when retinoic acid is added, the cell differentiates into cholinergic neuron-like cell as exemplified in FIG. 13. When NGF is added, the cell differentiates into dopaminergic neuron-like cells as exemplified in FIG. 13.

Consider “insulin: ligand of receptor tyrosine kinase INSR [reference compound]”, for which the “Marker enzyme expression (ChAT, TH) in the presence of ligand” value (“Marker enzyme expression (ChAT, TH)” for short) in test [1] is “dopaminergic”.

B1: Pehrin A3: ligand of receptor tyrosine kinases EPHA2 and EPHA3 (protein, UniProt P52797 23-214, looked up)
Ephrin-A3: QGPGGALGNRHAVYWNSSNQHLRREGYTVQVNVNDYLDIYCPHYNSSGVGPGAGPGPGGGAEQYVLYMVSRNGYRTCNASQGFKRWECNRPHAPHSPIKFSEKFQRYSAFSLGYEFHAGHEYYYISTPTHNLHWKCLRMKVFVCCASTSHSGEKPVPTLPQFTMGPNVKINVLEDFEGENPQVPKLEKSISG
For B1, in test [1], the “Marker enzyme expression (ChAT, TH)” value is given as “dopaminergic”.

B2: Ephrin B2: ligand of receptor tyrosine kinases EPHB1, EPHB2, EPHB3 (protein, UniProt P52799 28-333, looked up)
Ephrin-B2: IVLEPIYWNSSNSKFLPGQGLVLYPQIGDKLDIICPKVDSKTVGQYEYYKVYMVDKDQADRCTIKKENTPLLNCAKPDQDIKFTIKFQEFSPNLWGLEFQKNKDYYIISTSNGSLEGLDNQEGGVCQTRAMKILMKVGQDASSAGSTRNKDPTRRPELEAGTNGRSSTTSPFVKPNPGSSTDGNSAGHSGNNILGSEVALFAGIASGCIIFIVIIITLVVLLLKYRRRHRKHSPQHTTTLSLSTLATPKRSGNNNGSEPSDIIIPLRTADSVFCPHYEKVSGDYGHPVYIVQEMPPQSPANIYYKV
Consider B2, for which the “Marker enzyme expression (ChAT, TH)” value in test [1] was “dopaminergic”.

B3: NGF: NGF (Sigma 2.5 S #N-6009) (protein, UniProt P01139 122-241, looked up)
Beta-nerve growth factor: SSTHPVFHMGEFSVCDSVSVWVGDKTTATDIKGKEVTVLAEVNINNSVFRQYFFETKCRASNPVESGCRGIDSKHWNSYCTTTHTFVKALTTDEKQAAWRFIRIDTACVCVLSRKATRRG
modifications: 2.5S NGF
B3: the “Marker enzyme expression (ChAT, TH)” value in test [1] is listed as “dopaminergic”. The “Differentiation of SH-SY5Y cells” value in test [2] was “differentiated into doperminergia neuron-like cells”.

B4: BDNF: ligand of receptor tyrosine kinase NTRK2 (protein, UniProt P23560 19-247, looked up)
Neurotrophic factor BDNF …: APMKEANIRGQGGLAYPGVRTHGTLESVNGPKAGSRGLTSLADTFEHVIEELLDEDQKVRPNEENNKDADLYTSRVMLSSQVPLEPPLLFLLEEYKNYLDAANMSMRVRRHSDPARRGELSVCDSISEWVTAADKKTAVDMSGGTVTVLEKVPVSKGQLKQYFYETKCNPMGYTKEGCRGIDKRHWNSQCRTTQSYVRALTMDSKKRIGWRFIRIDTSCVCTLTIKRGR
For B4, the “Marker enzyme expression (ChAT, TH)” value in test [1] is reported as “dopaminergic”.
